Laboratory results reported in paper PMC8630017, “Structural insights into proteolytic activation of the human Dispatched1 transporter for Hedgehog morphogen release” (Nature Communications, 2021).

B1: hDisp1^NNN (D572N, D573N, D1051N), N-terminal Flag tag and C-terminal His10 tag, purified (natural protein, human, UniProt Q96F81 1-1524, looked up)
chain: MAMSNGNNDFVVLSNSSIATSAANPSPLTPCDGDHAAQQLTPKEATRTKVSPNGCLQLNGTVKSSFLPLDNQRMPQMLPQCCHPCPYHHPLTSHSSHQECHPEAGPAAPSALASCCMQPHSEYSASLCPNHSPVYQTTCCLQPSPSFCLHHPWPDHFQHQPVQQHIANIRPSRPFKLPKSYAALIADWPVVVLGMCTMFIVVCALVGVLVPELPDFSDPLLGFEPRGTAIGQRLVTWNNMVKNTGYKATLANYPFKYADEQAKSHRDDRWSDDHYEREKREVDWNFHKDSFFCDVPSDRYSRVVFTSSGGETLWNLPAIKSMCNVDNSRIRSHPQFGDLCQRTTAASCCPSWTLGNYIAILNNRSSCQKIVERDVSHTLKLLRTCAKHYQNGTLGPDCWDMAARRKDQLKCTNVPRKCTKYNAVYQILHYLVDKDFMTPKTADYATPALKYSMLFSPTEKGESMMNIYLDNFENWNSSDGVTTITGIEFGIKHSLFQDYLLMDTVYPAIAIVIVLLVMCVYTKSMFITLMTMFAIISSLIVSYFLYRVVFHFEFFPFMNLTALIILVGIGANNAFVLCDVWNYTKFDKPHAETSETVSITLQHAALSMFVTSFTTAAAFYANYVSNITAIRCFGVYAGTAILVNYVLMVTWLPAVVVLHERYLLNIFTCFKKPQQQIYDNKSCWTVACQKCHKVLFAISEASRIFFEKVLPCIVIKFRYLWLFWFLALTVGGAYIVCINPKMKLPSLELSEFQVFRSSHPFERYDAEYKKLFMFERVHHGEELHMPITVIWGVSPEDNGNPLNPKSKGKLTLDSSFNIASPASQAWILHFCQKLRNQTFFYQTDEQDFTSCFIETFKQWMENQDCDEPALYPCCSHWSFPYKQEIFELCIKRAIMELERSTGYHLDSKTPGPRFDINDTIRAVVLEFQSTYLFTLAYEKMHQFYKEVDSWISSELSSAPEGLSNGWFVSNLEFYDLQDSLSDGTLIAMGLSVAVAFSVMLLTTWNIIISLYAIISIAGTIFVTVGSLVLLGWELNVLESVTISVAVGLSVNFAVHYGVAYRLAPDPDREGKVIFSLSRVGSAMAMAALTTFVAGAMMMPSTVLAYTQLGTFMMLIMCISWAFATFFFQCMCRCLGPQGTCGQIPLPKKLQCSAFSHALSTSPSDKGQSKTHTINAYHLDPRGPKSELEHEFYELEPLASHSCTAPEKTTYEETHICSEFFNSQAKNLGMPVHAAYNSELSKSTESDAGSALLQPPLEQHTVCHFFSLNQRCSCPDAYKHLNYGPHSCQQMGDCLCHQCSPTTSSFVQIQNGVAPLKATHQAVEGFVHPITHIHHCPCLQGRVKPAGMQNSLPRNFFLHPVQHIQAQEKIGKTNVHSLQRSIEEHLPKMAEPSSFVCRSTGSLLKTCCDPENKQRELCKNRDVSNLESSGGTENKAGGKVELSLSQTDASVNSEHFNQNEPKVLFNHLMGEAGCRSCPNNSQSCGRIVRVKCNSVDCQMPNMEANVPAVLTHSELSGESLLIKTL
notes: human Dispatched1, M1 to L1524, triple mutant in TM4 and TM10; The purified protein is a mix of uncleaved (175 kDa) and Furin-cleaved species (C145 with the His tag; N35 and N30 with the Flag tag); source: HEK293F, transiently transfected, purified (anti-Flag resin, Ni-NTA, SEC on Superose 6) in GDN; not shown: Flag, N-terminal, kept; His10, C-terminal, kept

Target: the molecule itself
Assay: SEC; purified hDisp1^NNN on Superose 6 10/300 GL in 25 mM Tris pH 8.0, 150 mM NaCl, 0.02% GDN

**Q.** Does B1 bind?
**A.** binds

These molecules were tested against wild-type human Dispatched1 (hDisp1), N-terminal Flag tag and C-terminal Twin-Strep tag (human) (UniProt Q96F81) (assay: not given).

**Q.** With “NanoLuc-tagged human Shh, mutant E71A (from UniProt Q15465 24-462) (ligand)” as the molecule, how does the Scube2-dependent Shh-NL release from HEK293T cells after 6 h, against WT Shh-NL (fold reduction) read?
**A.** > 2

**Q.** Which Scube2-dependent Shh-NL release from HEK293T cells after 6 h, against WT Shh-NL (fold reduction) does the source give for “NanoLuc-tagged human Shh, mutant K74A (from UniProt Q15465 24-462) (ligand)” here?
**A.** > 2

**Q.** For “NanoLuc-tagged human Shh, mutant L56A (from UniProt Q15465 24-462) (ligand)”, which Scube2-dependent Shh-NL release from HEK293T cells after 6 h, against WT Shh-NL (fold reduction) is on record?
**A.** > 2

**Q.** Which Scube2-dependent Shh-NL release from HEK293T cells after 6 h, against WT Shh-NL (fold reduction) does the source give for “NanoLuc-tagged human Shh, mutant L56K (from UniProt Q15465 24-462) (ligand)” here?
**A.** > 2

**Q.** Which Scube2-dependent Shh-NL release from HEK293T cells after 6 h, against WT Shh-NL (fold reduction) does the source give for “NanoLuc-tagged human Shh, mutant N50A (from UniProt Q15465 24-462) (ligand)” here?
**A.** > 2

**Q.** With “NanoLuc-tagged human Shh, mutant N81A (from UniProt Q15465 24-462) (ligand)” as the molecule, how does the Scube2-dependent Shh-NL release from HEK293T cells after 6 h, against WT Shh-NL (surface localisation of this mutant reduced just below 50%) (fold reduction) read?
**A.** > 2

**Q.** For “NanoLuc-tagged human Shh, mutant V51E (from UniProt Q15465 24-462) (ligand)”, which Scube2-dependent Shh-NL release from HEK293T cells after 6 h, against WT Shh-NL (fold reduction) is on record?
**A.** > 2

**Q.** For “NanoLuc-tagged human Shh, mutant Y80A (from UniProt Q15465 24-462) (ligand)”, which Scube2-dependent Shh-NL release from HEK293T cells after 6 h, against WT Shh-NL (fold reduction) is on record?
**A.** > 2
